Measurements taken from paper PMC12678314, “Redox regulation of glutamate-1-semialdehyde aminotransferase modulates the synthesis of 5-aminolevulinic acid in Arabidopsis” (Frontiers in Plant Science, 2025).

Molecular target: the molecule itself
Assay: native gel or EMSA; purified His-GSAATAt (300 µM), no pretreatment, non-reducing/non-denaturing polyacrylamide gel; dimer to monomers

B1: recombinant His-tagged Arabidopsis glutamate-1-semialdehyde aminotransferase 1, wild type (enzyme)
chain: not shown
notes: Arabidopsis thaliana GSAAT1 (AtGSA1, AT5G63570), mature protein without the transit peptide 1-38 according to UniProt P42799; pET-28a(+); the methods remove 1-38; also called His-GSAAT; His-GSAATAt; source: E. coli Rosetta, purified (Ni-NTA); not shown: His6, N-terminal, kept
stoichiometry N: 2
